Measured values reported in the supplement of paper PMC7877785.
± gives the uncertainty stated by the source.

Test: self-splicing fitness, log relative to wild type (ln ratio); higher = more splicing; Tetrahymena group I intron in knt gene, E. coli kanamycin selection, DiMSum; sequences stand for … in CUCUCU…GGAGGGAAAAGUUAUCAGGCAUGCACCUGGUAGCUAGUCUUUAAACCAAUAGAUUGCAUCGGUUUAAAAGGCAAGACCGUCAAAUUGCGGGAAAGGGGUCAACAGCCGUUCAGUACCAAGUCUCAGGGGAAACUUUGAGAUGGCCUUGCAAAGGGUAUGGUAAUAAGCUGACGGACAUGGUCCUAACCACGCAGCCAAGUCCUAAGUCAACAGAUCUUCUGUUGAUAUGGAUGCAGUUCACAGACUAAAUGUCGGUCGGGGAAGAUGUAUUCUUCUCAUAAGAUAUAGUCGGACCUCUCCUUAAUGGGAGCUAGCGGAUGAAGUGAUGCAACACUGGAGCCGCUGGGAACUAAUUUGUAUGCGAAAGUAUAUUGAUUAGUUUUGGAGUACUCGUGGUCG
Method in brief: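 Colonies from six replicate transformations of E. coli BL21(DE3) were pooled and amplicon-sequenced on an Illumina HiSeq 2500. The library placed an intron with all eight P1ex-region nucleotides randomised inside the knt kanamycin-resistance gene on pET-22b(+), and cells grew overnight at 37°C or 30°C on LB agar with or without 25 μg/mL kanamycin (plus 100 μg/mL carbenicillin, 50 μM IPTG, 0.2% rhamnose). Fitness is the DiMSum error-weighted combination of wild-type-normalised replicate fold changes, kanamycin versus none.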

Sequence | self-splicing fitness (ln) (30 °C) | self-splicing fitness (ln) (37 °C)
CUGUAGCAAUAUUACGGGUA | -1.96 ± 0.35 | –
AGGAAGCAAUAUUACGCUUU | -4.15 ± 0.39 | -2.32 ± 0.27
AUGGAGCAAUAUUACGGUUC | -3.93 ± 0.42 | -2.56 ± 0.38
CCCAAGCAAUAUUACGGGAA | -2.75 ± 0.17 | -1.96 ± 0.16
AAGAAGCAAUAUUACGCGCG | -0.562 ± 0.12 | -0.0457 ± 0.15
GAUUAGCAAUAUUACGUACA | -1.89 ± 0.24 | -0.352 ± 0.15
ACGCAGCAAUAUUACGUCUU | -1.36 ± 0.065 | -1.27 ± 0.083
CUAGAGCAAUAUUACGCUAG | -3.78 ± 0.34 | -2.49 ± 0.28
UCGCAGCAAUAUUACGUAGA | -0.804 ± 0.065 | -0.0374 ± 0.079
GAGAAGCAAUAUUACGUAUU | -3.16 ± 0.14 | -3.08 ± 0.23
GGGGAGCAAUAUUACGCGAG | -1.54 ± 0.43 | -0.692 ± 0.24
AAUAAGCAAUAUUACGCGAA | -1.74 ± 0.12 | -1.01 ± 0.12
CCUUAGCAAUAUUACGCACA | -1.93 ± 0.28 | -1.06 ± 0.21
GUAUAGCAAUAUUACGGAUU | -2.58 ± 0.14 | -0.56 ± 0.13
GAAUAGCAAUAUUACGAGGG | -3.39 ± 0.18 | -3.25 ± 0.19
ACUCAGCAAUAUUACGCUCC | -0.601 ± 0.12 | -0.848 ± 0.16
AGGAAGCAAUAUUACGCCAU | -3.16 ± 0.27 | -2 ± 0.38
ACCUAGCAAUAUUACGGACU | -0.424 ± 0.059 | 0.508 ± 0.069
GGUUAGCAAUAUUACGUUUA | -1.5 ± 0.096 | -0.992 ± 0.088
GCGCAGCAAUAUUACGUCAA | -2.46 ± 0.14 | -0.0917 ± 0.1
GUUUAGCAAUAUUACGGCGU | -0.507 ± 0.094 | -0.0237 ± 0.12
UCAUAGCAAUAUUACGGUUC | -3.57 ± 0.35 | –
CGCUAGCAAUAUUACGGAGA | – | -2.2 ± 0.36
AAGGAGCAAUAUUACGGAUU | -2.19 ± 0.11 | -1.69 ± 0.095
UCGGAGCAAUAUUACGCGUA | -1.73 ± 0.26 | -1.38 ± 0.21
UUCGAGCAAUAUUACGAUAA | -1.53 ± 0.097 | -0.787 ± 0.11

Sequence | self-splicing fitness (ln) (30 °C) | self-splicing fitness (ln) (37 °C)
UCUCAGCAAUAUUACGGUAU | -3.7 ± 0.21 | -3.05 ± 0.26
GGUGAGCAAUAUUACGUUAA | -1.89 ± 0.18 | -1.09 ± 0.24
CUCCAGCAAUAUUACGAACC | -3.49 ± 0.26 | -1.91 ± 0.32
UCAUAGCAAUAUUACGCUAC | -2.17 ± 0.21 | -3.42 ± 0.29
CCGAAGCAAUAUUACGCACA | -3.87 ± 0.37 | -2.59 ± 0.28
UUGAAGCAAUAUUACGCGAC | -2.19 ± 0.18 | -1.51 ± 0.29
ACGAAGCAAUAUUACGCAUU | -3.42 ± 0.12 | -1.95 ± 0.096
AGGUAGCAAUAUUACGGUGA | -1.732 ± 0.017 | -1.06 ± 0.033
GUAGAGCAAUAUUACGAUCC | -1.22 ± 0.21 | -0.765 ± 0.28
UUCAAGCAAUAUUACGGAGG | -4.04 ± 0.27 | -2.58 ± 0.19
AGAAAGCAAUAUUACGGGGC | -4.36 ± 0.3 | -2.05 ± 0.21
CCGCAGCAAUAUUACGCUGU | -3.3 ± 0.36 | -2.85 ± 0.23
CGGAAGCAAUAUUACGUAUC | -3.82 ± 0.21 | -2.81 ± 0.22
ACUUAGCAAUAUUACGUAUC | -3.56 ± 0.22 | -2.37 ± 0.24
AGCAAGCAAUAUUACGGAGG | -4.63 ± 0.46 | -2.28 ± 0.33
GCCUAGCAAUAUUACGGGCG | -2.03 ± 0.1 | -1.02 ± 0.097
AAGCAGCAAUAUUACGUCCU | -0.341 ± 0.081 | -0.442 ± 0.094
UUUAAGCAAUAUUACGUUGG | -1.45 ± 0.1 | -1.67 ± 0.17
CAACAGCAAUAUUACGAGCG | -0.235 ± 0.051 | 0.702 ± 0.077
CCAAAGCAAUAUUACGGAUG | -1.44 ± 0.069 | -1.48 ± 0.1
GACCAGCAAUAUUACGGCAC | -0.0527 ± 0.076 | 0.491 ± 0.11
CCAGAGCAAUAUUACGAUGC | -3.48 ± 0.34 | -2.78 ± 0.29
AUAAAGCAAUAUUACGUAGC | -3.74 ± 0.27 | -1.26 ± 0.2
AGCAAGCAAUAUUACGAUAG | -2.98 ± 0.21 | -2.04 ± 0.2
ACGGAGCAAUAUUACGCCCG | – | 0.0539 ± 0.32
GGUGAGCAAUAUUACGGACA | -1.48 ± 0.17 | -0.688 ± 0.16

Sequence | self-splicing fitness (ln) (30 °C) | self-splicing fitness (ln) (37 °C)
UCCAAGCAAUAUUACGAGUU | -3.75 ± 0.28 | -1.33 ± 0.2
UAAGAGCAAUAUUACGUCAC | -2.67 ± 0.3 | -2.04 ± 0.34
AGACAGCAAUAUUACGCCAU | -3.25 ± 0.26 | -1.78 ± 0.17
AUACAGCAAUAUUACGAGCA | -2.04 ± 0.24 | -1.91 ± 0.23
GUAAAGCAAUAUUACGCCGG | -1.27 ± 0.13 | 0.13 ± 0.17
AUAGAGCAAUAUUACGAAUG | -3.68 ± 0.19 | -1.96 ± 0.17
UUUUAGCAAUAUUACGCAAA | -1.98 ± 0.49 | -1.47 ± 0.36
UCAUAGCAAUAUUACGCGGC | -3.53 ± 0.44 | –
GCACAGCAAUAUUACGACGC | -0.317 ± 0.079 | -0.196 ± 0.12
GAUUAGCAAUAUUACGGACA | -1.06 ± 0.13 | 0.179 ± 0.12
CGCAAGCAAUAUUACGUGCA | -0.273 ± 0.064 | -0.135 ± 0.075
GAGGAGCAAUAUUACGGCGC | -1.62 ± 0.34 | -0.697 ± 0.37
GUGUAGCAAUAUUACGGGCC | -1.6 ± 0.23 | -1.85 ± 0.48
UAGAAGCAAUAUUACGGGUA | -1.02 ± 0.16 | -0.329 ± 0.14
GCCAAGCAAUAUUACGGAUA | -0.904 ± 0.069 | -0.65 ± 0.073
CGUAAGCAAUAUUACGACGU | -2.15 ± 0.15 | -0.981 ± 0.15
AGCGAGCAAUAUUACGUAUC | – | -3.38 ± 0.39
CGACAGCAAUAUUACGUACC | -0.817 ± 0.12 | -0.217 ± 0.19
UACCAGCAAUAUUACGGAAC | -3.57 ± 0.44 | -3.27 ± 0.27
UAGGAGCAAUAUUACGACGU | – | -1.9 ± 0.38
AACAAGCAAUAUUACGGAGA | -3.58 ± 0.23 | -3.19 ± 0.24
UCAAAGCAAUAUUACGCUCU | -3.71 ± 0.27 | -2.69 ± 0.26
AGAUAGCAAUAUUACGGGCU | -1.34 ± 0.15 | -1.38 ± 0.21
AUCUAGCAAUAUUACGGUGG | -4.43 ± 0.46 | -2.53 ± 0.19
UGGAAGCAAUAUUACGUUCG | 0.201 ± 0.087 | -0.347 ± 0.096
